Laboratory results: article PMC5431157

Experiments:
[1] = molecular target: human thrombin (human) (UniProt P00734)
[2] = molecular target: human thrombin (human) (UniProt P00734); remark: listed apart in the source
[3] = molecular target: human thrombin (human) (UniProt P00734); test: enzyme inhibition kinetics (chromogenic substrate S-2238); 0.1 nM thrombin added to sculptin (0-80 pM) and S-2238 at different concentrations; 50 mM phosphate, 150 mM NaCl, 0.1% PEG 6000, pH 7.4, 37 °C; Hanes-Woolf plot, intercepts against inhibitor concentration, confirmed by non-linear regression for competitive inhibition
[4] = molecular target: human thrombin (human) (UniProt P00734); test: enzyme inhibition kinetics (chromogenic substrate S-2238); 100 pM thrombin, 15 µM S-2238, sculptin 0-50 pM; 50 mM phosphate, 150 mM NaCl, 0.1% PEG 6000, pH 7.4, 37 °C; progress curves, kobs against sculptin concentration gives kon and koff; Ki = koff/kon
[5] = molecular target: human thrombin (human) (UniProt P00734); test: enzyme inhibition kinetics (chromogenic substrate S-2238); 0.1 nM thrombin, 15 µM S-2238, sculptin 0-500 pM; 50 mM phosphate, 150 mM NaCl, 0.1% PEG 6000, pH 7.4, 37 °C; fractional steady-state velocities fitted to Morrison's tight binding equation

Substance: recombinant sculptin (natural protein)
- residual activity of thrombin (100 pM, chromogenic substrate) with 1 nM sculptin, 6 h at 37 °C [1]: 97%
- IC50 of inhibition of thrombin (0.1 nM) hydrolysis of 15 µM S-2238, dose-response fit [2]: 0.0866 nM
- Ki [3]: 0.0183 nM
- Ki [4]: 0.0161 nM
- koff [4]: 0.00065 s⁻¹
- kon [4]: 4.04e+07 M⁻¹ s⁻¹
- Ki [5]: 0.0195 nM
